Test results: US12099068B2, “Biomarkers for graft-versus-host disease” (Incyte Corporation, priority 2018, dated 2024)

B1: TDRKH (protein, UniProt Q9Y2W6 1-561, looked up)
Tudor and KH …: MSTERTSWTSLSTIQKIALGLGIPASATVAYILYRRYRESREERLTFVGEDDIEIEMRVPQEAVKLIIGRQGANIKQLRKQTGARIDVDTEDVGDERVLLISGFPVQVCKAKAAIHQILTENTPVSEQLSVPQRSVGRIIGRGGETIRSICKASGAKITCDKESEGTLLLSRLIKISGTQKEVAAAKHLILEKVSEDEELRKRIAHSAETRVPRKQPISVRREDMTEPGGAGEPALWKNTSSSMEPTAPLVTPPPKGGGDMAVVVSKEGSWEKPSDDSFQKSEAQAIPEMPMFEIPSPDFSFHADEYLEVYVSASEHPNHFWIQIVGSRSLQLDKLVNEMTQHYENSVPEDLTVHVGDIVAAPLPTNGSWYRARVLGTLENGNLDLYFVDFGDNGDCPLKDLRALRSDFLSLPFQAIECSLARIAPSGDQWEEEALDEFDRLTHCADWKPLVAKISSYVQTGISTWPKIYLYDTSNGKKLDIGLELVHKGYAIELPEDIEENRAVPDMLKDMATETDASLSTLLTETKKSSGEITHTLSCLSLSEAASMSGDDNLEDDYLL
B2: LYVE1 (protein, UniProt Q9Y5Y7 20-322, looked up)
Lymphatic vessel endothelial …: LVQGSLRAEELSIQVSCRIMGITLVSKKANQQLNFTEAKEACRLLGLSLAGKDQVETALKASFETCSYGWVGDGFVVISRISPNPKCGKNGVGVLIWKVPVSRQFAAYCYNSSDTWTNSCIPEIITTKDPIFNTQTATQTTEFIVSDSTYSVASPYSTIPAPTTTPPAPASTSIPRRKKLICVTEVFMETSTMSTETEPFVENKAAFKNEAAGFGGVPTALLVLALLFFGAAAGLGFCYVKRYVKAFPFTNKNQQKEMIETKVVKEEKANDSNPNEESKKTDKNPEESKSPSKTTVRCLEAEV
B3: CD40-L (protein, UniProt P29965 113-261, looked up)
CD40 ligand, soluble form: MQKGDQNPQIAAHVISEASSKTTSVLQWAEKGYYTMSNNLVTLENGKQLTVKRQGLYYIYAQVTFCSNREASSQAPFIASLCLKSPGRFERILLRAANTHSSAKPCGQQSIHLGGVFELQPGASVFVNVTDPSQVSHGTGFTSFGLLKL
B4: EGF (protein, UniProt P01133 23-1207, looked up)
Pro-epidermal growth factor: PQHWSCPEGTLAGNGNSTCVGPAPFLIFSHGNSIFRIDTEGTNYEQLVVDAGVSVIMDFHYNEKRIYWVDLERQLLQRVFLNGSRQERVCNIEKNVSGMAINWINEEVIWSNQQEGIITVTDMKGNNSHILLSALKYPANVAVDPVERFIFWSSEVAGSLYRADLDGVGVKALLETSEKITAVSLDVLDKRLFWIQYNREGSNSLICSCDYDGGSVHISKHPTQHNLFAMSLFGDRIFYSTWKMKTIWIANKHTGKDMVRINLHSSFVPLGELKVVHPLAQPKAEDDTWEPEQKLCKLRKGNCSSTVCGQDLQSHLCMCAEGYALSRDRKYCEDVNECAFWNHGCTLGCKNTPGSYYCTCPVGFVLLPDGKRCHQLVSCPRNVSECSHDCVLTSEGPLCFCPEGSVLERDGKTCSGCSSPDNGGCSQLCVPLSPVSWECDCFPGYDLQLDEKSCAASGPQPFLLFANSQDIRHMHFDGTDYGTLLSQQMGMVYALDHDPVENKIYFAHTALKWIERANMDGSQRERLIEEGVDVPEGLAVDWIGRRFYWTDRGKSLIGRSDLNGKRSKIITKENISQPRGIAVHPMAKRLFWTDTGINPRIESSSLQGLGRLVIASSDLIWPSGITIDFLTDKLYWCDAKQSVIEMANLDGSKRRRLTQNDVGHPFAVAVFEDYVWFSDWAMPSVMRVNKRTGKDRVRLQGSMLKPSSLVVVHPLAKPGADPCLYQNGGCEHICKKRLGTAWCSCREGFMKASDGKTCLALDGHQLLAGGEVDLKNQVTPLDILSKTRVSEDNITESQHMLVAEIMVSDQDDCAPVGCSMYARCISEGEDATCQCLKGFAGDGKLCSDIDECEMGVPVCPPASSKCINTEGGYVCRCSEGYQGDGIHCLDIDECQLGEHSCGENASCTNTEGGYTCMCAGRLSEPGLICPDSTPPPHLREDDHHYSVRNSDSECPLSHDGYCLHDGVCMYIEALDKYACNCVVGYIGERCQYRDLKWWELRHAGHGQQQKVIVVAVCVVVLVMLLLLSLWGAHYYRTQKLLSKNPKNPYEESSRDVRSRRPADTEDGMSSCPQPWFVVIKEHQDLKNGGQPVAGEDGQAADGSMQPTSWRQEPQLCGMGTEQGCWIPVSSDKGSCPQVMERSFHMPSYGTQTLEGGVEKPHSLLSANPLWQQRALDPPHQMELTQ
modifications: Pro-epidermal growth factor
B5: FCRL1 (protein, UniProt Q96LA6 17-429, looked up)
Fc receptor-like protein 1: AELFLIASPSHPTEGSPVTLTCKMPFLQSSDAQFQFCFFRDTRALGPGWSSSPKLQIAAMWKEDTGSYWCEAQTMASKVLRSRRSQINVHRVPVADVSLETQPPGGQVMEGDRLVLICSVAMGTGDITFLWYKGAVGLNLQSKTQRSLTAEYEIPSVRESDAEQYYCVAENGYGPSPSGLVSITVRIPVSRPILMLRAPRAQAAVEDVLELHCEALRGSPPILYWFYHEDITLGSRSAPSGGGASFNLSLTEEHSGNYSCEANNGLGAQRSEAVTLNFTVPTGARSNHLTSGVIEGLLSTLGPATVALLFCYGLKRKIGRRSARDPLRSLPSPLPQEFTYLNSPTPGQLQPIYENVNVVSGDEVYSLAYYNQPEQESVAAETLGTHMEDKVSLDIYSRLRKANITDVDYEDAM
B6: PRDX3 (protein, UniProt P30048 62-256, looked up)
Thioredoxin-dependent …: APAVTQHAPYFKGTAVVNGEFKDLSLDDFKGKYLVLFFYPLDFTFVCPTEIVAFSDKANEFHDVNCEVVAVSVDSHFSHLAWINTPRKNGGLGHMNIALLSDLTKQISRDYGVLLEGSGLALRGLFIIDPNGVIKHLSVNDLPVGRSVEETLRLVKAFQYVETHGEVCPANWTPDSPTIKPSPAASKEYFQKVNQ
B7: FABP4 (protein, UniProt P15090 2-132, looked up)
Fatty acid-binding protein, …: CDAFVGTWKLVSSENFDDYMKEVGVGFATRKVAGMAKPNMIISVNGDVITIKSESTFKNTEISFILGQEFDEVTADDRKVKSTITLDGGVLVHVQKWDGKSTTIKRKREDDKLVVECVMKGVTSTRVYERA
B8: VEGFC (protein, UniProt P49767 112-227, looked up)
Vascular endothelial growth …: AHYNTEILKSIDNEWRKTQCMPREVCIDVGKEFGVATNTFFKPPCVSVYRCGGCCNSEGLQCMNTSTSYLSKTLFEITVPLSQGPKPVTISFANHTSCRCMSKLDVYRQVHSIIRR
B9: GZMH (protein, UniProt P20718 21-246, looked up)
Granzyme H: IIGGHEAKPHSRPYMAFVQFLQEKSRKRCGGILVRKDFVLTAAHCQGSSINVTLGAHNIKEQERTQQFIPVKRPIPHPAYNPKNFSNDIMLLQLERKAKWTTAVRPLRLPSSKAQVKPGQLCSVAGWGYVSMSTLATTLQEVLLTVQKDCQCERLFHGNYSRATEICVGDPKKTQTGFKGDSGGPLVCKDVAQGILSYGNKKGTPPGVYIKVSHFLPWIKRTMKRL
B10: GM-CSF-R-alpha (protein, UniProt P15509 23-400, looked up)
Granulocyte-macrophage …: EKSDLRTVAPASSLNVRFDSRTMNLSWDCQENTTFSKCFLTDKKNRVVEPRLSNNECSCTFREICLHEGVTFEVHVNTSQRGFQQKLLYPNSGREGTAAQNFSCFIYNADLMNCTWARGPTAPRDVQYFLYIRNSKRRREIRCPYYIQDSGTHVGCHLDNLSGLTSRNYFLVNGTSREIGIQFFDSLLDTKKIERFNPPSNVTVRCNTTHCLVRWKQPRTYQKLSYLDFQYQLDVHRKNTQPGTENLLINVSGDLENRYNFPSSEPRAKHSVKIRAADVRILNWSSWSEAIEFGSDDGNLGSVYIYVLLIVGTLVCGIVLGFLFKRFLRIQRLFPPVPQIKDKLNDNHEVEDEIIWEEFTPEEGKGYREEVLTVKEIT
B11: FADD (protein, UniProt Q13158 1-208, looked up)
FAS-associated death domain …: MDPFLVLLHSVSSSLSSSELTELKFLCLGRVGKRKLERVQSGLDLFSMLLEQNDLEPGHTELLRELLASLRRHDLLRRVDDFEAGAAAGAAPGEEDLCAAFNVICDNVGKDWRRLARQLKVSDTKIDSIEDRYPRNLTERVRESLRIWKNTEKENATVAHLVGALRSCQMNLVADLVQEVQQARDLQNRSGAMSPMSWNSDASTSEAS
B12: CLEC4G (protein, UniProt Q6UXB4 1-293, looked up)
C-type lectin domain family 4 …: MDTTRYSKWGGSSEEVPGGPWGRWVHWSRRPLFLALAVLVTTVLWAVILSILLSKASTERAALLDGHDLLRTNASKQTAALGALKEEVGDCHSCCSGTQAQLQTTRAELGEAQAKLMEQESALRELRERVTQGLAEAGRGREDVRTELFRALEAVRLQNNSCEPCPTSWLSFEGSCYFFSVPKTTWAAAQDHCADASAHLVIVGGLDEQGFLTRNTRGRGYWLGLRAVRHLGKVQGYQWVDGVSLSFSHWNQGEPNDAWGRENCVMMLHTGLWNDAPCDSEKDGWICEKRHNC
B13: DNER (protein, UniProt Q8NFT8 35-737, looked up)
Delta and Notch-like …: NPVPAAPLSAPGPCAAQPCRNGGVCTSRPEPDPQHPAPAGEPGYSCTCPAGISGANCQLVADPCASNPCHHGNCSSSSSSSSDGYLCICNEGYEGPNCEQALPSLPATGWTESMAPRQLQPVPATQEPDKILPRSQATVTLPTWQPKTGQKVVEMKWDQVEVIPDIACGNASSNSSAGGRLVSFEVPQNTSVKIRQDATASLILLWKVTATGFQQCSLIDGRSVTPLQASGGLVLLEEMLALGNNHFIGFVNDSVTKSIVALRLTLVVKVSTCVPGESHANDLECSGKGKCTTKPSEATFSCTCEEQYVGTFCEEYDACQRKPCQNNASCIDANEKQDGSNFTCVCLPGYTGELCQSKIDYCILDPCRNGATCISSLSGFTCQCPEGYFGSACEEKVDPCASSPCQNNGTCYVDGVHFTCNCSPGFTGPTCAQLIDFCALSPCAHGTCRSVGTSYKCLCDPGYHGLYCEEEYNECLSAPCLNAATCRDLVNGYECVCLAEYKGTHCELYKDPCANVSCLNGATCDSDGLNGTCICAPGFTGEECDIDINECDSNPCHHGGSCLDQPNGYNCHCPHGWVGANCEIHLQWKSGHMAESLTNMPRHSLYIIIGALCVAFILMLIILIVGICRISRIEYQGSSRPAYEEFYNCRSIDSEFSNAIASIRHARFGKKSRPAMYDVSPIAYEDYSPDDKPLVTLIKTKDL

tested on: plasma proteins; test: Plasma proteins modulated between baseline and day 28 in responders (CR, VGPR, PR; n = 19), Example 6 (Table 13); format: in vivo, human; conditions: plasma protein (OLINK NPX); responders (CR, VGPR, PR; n = 19); itacitinib 200 mg or 300 mg QD with corticosteroids; day 28 vs baseline
In short: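 Longitudinal comparison, day 28 versus baseline, with steroid-naive (N=10) and steroid-refractory (N=18) patients combined. Proteins measured by OLINK proximity extension, log2 normalized protein expression. Differences tested by t tests, ANOVA, Pearson correlation, P<0.05 significant.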

Compared with B1, B2 is higher in “Fold Change, Decreased Expression from Baseline to Day 28” value (“Fold Change, Decreased Expression” below): −1.2785 for the first, −1.227 for the second.

Compared with B3, B4 is lower in “Fold Change, Decreased Expression” value: −1.5868 for the first, −1.7729 for the second.

First: B5
Second: B6
The “Fold Change, Decreased Expression” value of the first is lower: −1.3733 for the first, −1.199 for the second.

Compared with B8, B9 is lower in “Fold Change, Decreased Expression” value: −1.1727 for the first, −1.494 for the second.

Going from B10 to B11, the “Fold Change, Decreased Expression” value falls from −1.4489 to −1.546.

B12 was tested, and the “Fold Change, Decreased Expression” value was −1.1865.

First: B7
Second: B13
The “Fold Change, Increased Expression from Baseline to Day 28” value of the first is higher: 1.6926 for the first, 1.2957 for the second.
